Measurements: paper PMC6326742 (Cell, 2018)

Molecular target: the molecule itself
Experiment: SEC-MALS

B1: Ptch1-B (stabilized mouse PTCH1 variant, SBP-tagged, purified) (receptor, UniProt Q61115 1-1291, looked up)
chain: MASAGNAAGALGRQAGGGRRRRTGGPHRAAPDRDYLHRPSYCDAAFALEQISKGKATGRKAPLWLRAKFQRLLFKLGCYIQKNCGKFLVVGLLIFGAFAVGLKAANLETNVEELWVEVGGRVSRELNYTRQKIGEEAMFNPQLMIQTPKEEGANVLTTEALLQHLDSALQASRVHVYMYNRQWKLEHLCYKSGELITETGYMDQIIEYLYPCLIITPLDCFWEGAKLQSGTAYLLGKPPLRWTNFDPLEFLEELKKINYQVDSWEEMLNKAEVGHGYMDRPCLNPADPDCPATAPNKNSTKPLDVALVLNGGCQGLSRKYMHWQEELIVGGTVKNATGKLVSAHALQTMFQLMTPKQMYEHFRGYDYVSHINWNEDRAAAILEAWQRTYVEVVHQSVAPNSTQKVLPFTTTTLDDILKSFSDVSVIRVASGYLLMLAYACLTMLRWDCSKSQGAVGLAGVLLVALSVAAGLGLCSLIGISFNAATTQVLPFLALGVGVDDVFLLAHAFSETGQNKRIPFEDRTGECLKRTGASVALTSISNVTAFFMAALIPIPALRAFSLQAAVVVVFNFAMVLLIFPAILSMDLYRREDRRLDIFCCFTSPCVSRVIQVEPQAYTEPMQSTVQLRTEYDPHTHVYYTTAEPRSEISVQPVTVTQDNLSCQSPESTSSTRDLLSQFSDSSLHCLEPPCTKWTLSSFAEKHYAPFLLKPKAKVVVILLFLGLLGVSLYGTTRVRDGLDLTDIVPRETREYDFIAAQFKYFSFYNMYIVTQKADYPNIQHLLYDLHKSFSNVKYVMLEENKQLPQMWLHYFRDWLQGLQDAFDSDWETGRIMPNNYKNGSDDGVLAYKLLVQTGSRDKPIDISQLTKQRLVDADGIINPSAFYIYLTAWVSNDPVAYAASQANIRPHRPEWVHDKADYMPETRLRIPAAEPIEYAQFPFYLNGLRDTSDFVEAIEKVRVICNNYTSLGLSSYPNGYPFLFWEQYISLRHWLLLSISVVLACTFLVCAVFLLNPWTAGIIVMVLALMTVELFGMMGLIGIKLSAVPVVILIASVGIGVEFTVHVALAFLTAIGDKNHRAMLALEHMFAPVLDGAVSTLLGVLMLAGSEFDFIVRYFFAVLAILTVLGVLNGLVLLPVLLSFFGPCPEVSPANGLNRLPTPSPEPPPSVVRFAVPPGHTNNGSDSSDSEYSSQTTVSGISEELRQYEAQQGAGGPAHQVIVEATENPVFARSTVVHPDSRHQPPLTPRQQPHLDSGSLSPGRQGQQPRRD
stoichiometry N: 2
